Measurements taken from PMC11066524, “The molecular determinants of classical pathway complement inhibition by OspEF-related proteins of Borrelia burgdorferi” (The Journal of Biological Chemistry, 2024).

T1: full-length activated human C1s (human, UniProt P09871 16-437; P09871 438-688)
T1 construct: also called active C1s
T1 sequence 1: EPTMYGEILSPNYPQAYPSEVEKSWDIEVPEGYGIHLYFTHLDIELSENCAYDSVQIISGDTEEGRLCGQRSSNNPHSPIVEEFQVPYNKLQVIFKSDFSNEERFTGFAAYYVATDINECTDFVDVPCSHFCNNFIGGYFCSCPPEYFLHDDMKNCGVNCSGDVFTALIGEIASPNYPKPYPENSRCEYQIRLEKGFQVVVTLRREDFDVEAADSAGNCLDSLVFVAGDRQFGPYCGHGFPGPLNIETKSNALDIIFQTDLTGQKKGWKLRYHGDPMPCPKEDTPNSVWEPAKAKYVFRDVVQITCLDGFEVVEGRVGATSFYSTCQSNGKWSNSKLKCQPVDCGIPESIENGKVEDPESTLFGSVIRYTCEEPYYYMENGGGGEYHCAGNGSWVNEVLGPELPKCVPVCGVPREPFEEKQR
T1 sequence 2: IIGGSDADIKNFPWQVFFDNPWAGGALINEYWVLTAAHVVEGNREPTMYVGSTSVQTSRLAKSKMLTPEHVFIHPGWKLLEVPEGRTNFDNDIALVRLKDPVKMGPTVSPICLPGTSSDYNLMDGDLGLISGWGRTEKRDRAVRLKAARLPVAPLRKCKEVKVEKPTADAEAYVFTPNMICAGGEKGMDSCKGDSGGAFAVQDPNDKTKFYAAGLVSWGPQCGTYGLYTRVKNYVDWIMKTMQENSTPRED

T2: activated full-length human C1r (human, UniProt P00736 18-705)
T2 construct: as far as I recall it is cleaved at Arg463-Ile464 of P00736 and lacks the signal peptide (1-17); also called active C1r
T2 sequence: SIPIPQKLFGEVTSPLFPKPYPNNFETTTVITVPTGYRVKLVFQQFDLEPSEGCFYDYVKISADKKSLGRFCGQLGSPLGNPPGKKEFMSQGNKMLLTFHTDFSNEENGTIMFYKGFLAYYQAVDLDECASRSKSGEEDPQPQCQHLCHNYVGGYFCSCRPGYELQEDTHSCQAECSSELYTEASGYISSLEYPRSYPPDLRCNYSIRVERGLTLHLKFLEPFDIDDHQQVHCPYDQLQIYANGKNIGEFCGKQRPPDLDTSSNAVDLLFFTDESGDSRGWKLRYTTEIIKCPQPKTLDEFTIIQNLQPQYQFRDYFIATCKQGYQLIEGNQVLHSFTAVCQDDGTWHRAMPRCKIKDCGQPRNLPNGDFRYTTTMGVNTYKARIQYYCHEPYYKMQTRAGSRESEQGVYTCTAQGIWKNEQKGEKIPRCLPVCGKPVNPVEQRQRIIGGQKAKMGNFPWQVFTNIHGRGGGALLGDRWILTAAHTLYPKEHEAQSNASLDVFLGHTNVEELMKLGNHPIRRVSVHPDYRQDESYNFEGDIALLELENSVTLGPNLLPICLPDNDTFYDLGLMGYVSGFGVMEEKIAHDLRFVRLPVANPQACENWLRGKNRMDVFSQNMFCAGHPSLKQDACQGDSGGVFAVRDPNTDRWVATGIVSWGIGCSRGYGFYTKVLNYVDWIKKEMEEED


Assays:
Conditions in all cases: both partners purified
[1] = molecular target: T1, full-length activated human C1s; test: HDX-MS; ElpQ_(19-343) alone or with a 3-fold molar excess of full-length activated C1s, on ice ~20 min before analysis; exchange 0 s to 2 h at 20 °C in D2O buffer (25 mM phosphate pD 7.5, 0.1 M NaCl); triplicate
[2] = molecular target: T2, activated full-length human C1r; test: SPR; kinetic fit (K_(D, kin)), 1:1 Langmuir; ElpQ/ElpB proteins amine-coupled to a CMD200 chip; activated C1s or C1r injected 0-200 nM, multicycle; HBS-T Ca2+ (10 mM Hepes pH 7.3, 140 mM NaCl, 0.005% Tween-20, 5 mM CaCl2); 30 μl/min; association 120 s (C1r 480 s), dissociation 180 s
[3] = molecular target: T1, full-length activated human C1s; test: as above
[4] = molecular target: T1, full-length activated human C1s; test: SPR; steady-state fit (K_(D, ss)), 1:1 model, of the same injection series as a2; ElpQ proteins amine-coupled to a CMD200 chip; activated C1s or C1r 0-200 nM; HBS-T Ca2+ (10 mM Hepes pH 7.3, 140 mM NaCl, 0.005% Tween-20, 5 mM CaCl2)
[5] = molecular target: T2, activated full-length human C1r; test: as above

Binder	binding result [1]	koff [2]	kon [2]	Kd [3]	koff [3]	kon [3]	Kd [4]	Kd [2]	Kd [5]
full-length ElpQ (ElpQ_(19-343)) (natural protein, ElpQ, outer surface lipoprotein of the OspEF-related protein family, Borrelia burgdorferi strain B31, UniProt Q9S035, residues 19-343 (325 residues); also called Apo-ElpQ_(19-343)) KNFATGKDIKQNSEGKIKGFVNKILDPVKDKIASSGTKVDEVAKKLQEEEKEELMQGDDPNGSGINPPPVLPENIHNNALVLKAIEQSDGQQEKKVEEAEAKVEENKEKQENTEENIKEKEIIDEQNKQELAKAKEEEQQKEQKRHQEEQQRKAKAEKEKREREEAEQQKRQQEEEEKRQVDNQIKTLIAKIDEINENIDVIKWQTTVGPQGVIDRITGPVYDDFTNGNNSIRETWEGLEEESEDEGLGKLLKELSDARDALRTKLNEGNKPYTGYEEPKLKESVNVSEIKEDLEKLKSKLEEVKKYLKDSSKFEEIKGYISDSQ	binds	–	–	–	–	–	–	–	–
ElpQA4 (domain or fragment, Borrelia burgdorferi strain B31, UniProt Q9S035 181-343, looked up, Synthetic E. coli codon-optimised gene fragment cloned BamHI/NotI into pT7HMT) REEAEQQKRQQEEEEKRQVDNQIKTLIAKIDEINENIDVIKWQTTVGPQGVIDRITGPVYDDFTNGNNSIRATWEGLAAESADEGLGKLLKELSDARDALRTKLNEGNKPYTGYEEPKLKESVNVSEIKEDLEKLKSKLEEVKKYLKDSSKFEEIKGYISDSQ	–	0.493 s⁻¹	2440 M⁻¹ s⁻¹	173 nM	0.0103 s⁻¹	60100 M⁻¹ s⁻¹	~464 nM	–	–
ElpQ_(Δ290-296) (domain or fragment, Borrelia burgdorferi strain B31, UniProt Q9S035 181-343, looked up, Synthetic E. coli codon-optimised gene fragment cloned BamHI/NotI into pT7HMT; also called Δ290 to 296) REEAEQQKRQQEEEEKRQVDNQIKTLIAKIDEINENIDVIKWQTTVGPQGVIDRITGPVYDDFTNGNNSIRETWEGLEEESEDEGLGKLLKELSDARDALRTKLNEGNKPKLKESVNVSEIKEDLEKLKSKLEEVKKYLKDSSKFEEIKGYISDSQ	–	–	–	~623 nM	0.00746 s⁻¹	22500 M⁻¹ s⁻¹	~665 nM	–	–
ElpQ_(181-343) (domain or fragment, pT7HMT adds, as far as I recall, an N-terminal His-Myc tag with a TEV site that is usually cleaved; also called C-terminal truncation construct of ElpQ) REEAEQQKRQQEEEEKRQVDNQIKTLIAKIDEINENIDVIKWQTTVGPQGVIDRITGPVYDDFTNGNNSIRETWEGLEEESEDEGLGKLLKELSDARDALRTKLNEGNKPYTGYEEPKLKESVNVSEIKEDLEKLKSKLEEVKKYLKDSSKFEEIKGYISDSQ	–	0.00316 s⁻¹	21700 M⁻¹ s⁻¹	14.5 nM	0.00683 s⁻¹	477000 M⁻¹ s⁻¹	39.3 nM	151 nM	221 nM
ElpQ_(181-340) (domain or fragment, also called ElpQ truncation lacking residues 341 to 343) REEAEQQKRQQEEEEKRQVDNQIKTLIAKIDEINENIDVIKWQTTVGPQGVIDRITGPVYDDFTNGNNSIRETWEGLEEESEDEGLGKLLKELSDARDALRTKLNEGNKPYTGYEEPKLKESVNVSEIKEDLEKLKSKLEEVKKYLKDSSKFEEIKGYIS	–	0.00277 s⁻¹	26400 M⁻¹ s⁻¹	20.8 nM	0.00794 s⁻¹	425000 M⁻¹ s⁻¹	55.6 nM	113 nM	181 nM
